In patent US6787341B2, “Pharmacological targeting of bacterial DNA ligase for treatment and prevention of bacterial infections” (priority 2001, dated 2004):
Numbering of substitutions follows the chain as printed. In names and notes the source's numbering stands.

What was measured:
[1] = tested on: E. coli LigA; type: biochemical; settings: for ligase adenylation (ligase-AMP formation) with NAD+: qualitative
Procedure: (§1) FIG. 12A: Aliquots (5 μg) of wild-type (WT) E. coli ligase, N-terminal deletion mutants NΔ38 and NΔ78, and the full-length ligase proteins containing the indicated alanine mutations in domain Ia were analyzed by SDS-PAGE. A Coomassie blue-stained gel is shown. FIG. 12B: Ligase adenylation reaction mixtures (20 μl) containing 50 mM Tris-HCl (pH 7.5), 5 mM DTT, 5 mM MgCl2, 1 μM [α-^32P]NAD^+ and 8 pmol of WT ligase, NΔ38, NΔ78, or the indicated alanine mutants were incubated for 5 min at 37° C. The reaction products were resolved by SDS-PAGE and visualized by autoradiography. FIG. 12C: Nick joining reaction mixtures (20 μl) containing 50 mM Tris-HCl (pH 7.5), 10 mM (NH4)2SO4, 5 mM DTT, 5 mM MgCl2, 20 μM NAD^+, 1 pmol of ^32P-labeled nicked DNA, and increasing amounts of WT ligase or the indicated alanine mutants were incubated for 10 min at 22° C. The extents of ligation are plotted as a function of input protein.
FIG. 15A: Aliquots (5 μg) of wild-type (WT) E. coli ligase and proteins containing the indicated mutations in domain Ia were analyzed by SDS-PAGE. The Coomassie blue-stained gel is shown. The positions and sizes (in kDa) of marker proteins are indicated on the left. FIG. 15B: Ligase adenylation reaction mixtures (20 μl) containing 50 mM Tris-HCl (pH 7.5), 5 mM DTT, 5 mM MgCl2, 1 μM [α-^32P]NAD^+ and 8 pmol of WT ligase or the indicated mutants were incubated for 5 min at 37° C. The reaction products were resolved by SDS-PAGE and visualized by autoradiography.
Reaction mixtures containing (per 20 μl) 50 mM Tris-HCl (pH 7.5), 5 mM DTT, 5 mM MgCl2, 1 μM [^32P-AMP]NAD^+ and 8 pmol of ligase were incubated at 22° C. Aliquots (20 μl) were withdrawn at 15, 30, 60 and 120 s and then quenched immediately with SDS. The products were analyzed by SDS-PAGE. Formation of the ligase-[^32P]AMP adduct is plotted as a function of time.
The first step in DNA ligation involves formation of a covalent enzyme-adenylate intermediate.

[2] = tested on: E. coli LigA; type: biochemical; settings: for Nick Joining Activity (% of WT): specific activity by protein titration under steady-state conditions, normalized to wild-type ligase
Procedure: as §1
To further probe the role of domain Ia in NAD^+ recognition and nucleotidyl transfer, single alanine substitutions were introduced at six positions in the Ia domain of E. coli LigA. The six mutated Eco ligase residues—Glu10, Tyr22, His23, Asp32, Tyr35, and Asp36—correspond to the six residues that were subjected to alanine scanning mutagenesis in AmEPV ligase (FIG. 11). […] The conserved positions are denoted by shaded boxes in FIG. 11. The Eco ligase mutants E10A, Y22A, H23A, D32A, Y35A, and D36A were produced in E. coli and purified by Ni-agarose chromatography in parallel with wild-type ligase (FIG. 12A).
To evaluate the roles of charge, hydrogen bonding potential, and steric constraints in the functions of the domain Ia residues implicated in the step 1 reaction with NAD^+, the effects of conservative substitutions were tested. Tyr22 and Tyr35 were replaced by Phe and Ser, His23 was changed to Tyr, and Asp32 and Asp36 were mutated to Glu and Asn. The recombinant mutant ligases were purified from soluble bacterial extracts by Ni-agarose chromatography (FIG. 15A). The specific activity of each mutant was determined under steady-state conditions by protein titration and normalized to the specific activity of wild-type ligase.

[3] = tested on: E. coli LigA; type: biochemical; settings: for phosphodiester formation at pre-adenylated nick: qualitative, magnesium, no added NAD+
Procedure: (§2) Reaction mixtures containing 1 pmol of ^32P-labeled nicked DNA-adenylate (AppDNA) and either 8 pmol of wild-type (WT) E. coli ligase, deletion mutants NΔ38 and NΔ78, or the full-length ligase proteins containing the indicated alanine mutations in domain Ia were incubated for 60 min at 22° C. The reaction products were resolved by denaturing PAGE. An autoradiograph of the gel is shown. Control reaction mixtures containing either ^32P-labeled nicked DNA-adenylate (AppDNA) or nicked DNA (pDNA) substrates and no ligase are shown in lanes -. The positions of the pDNA, AppDNA, and ligated 36-mer DNA strands are indicated by arrows on the right. The position of the radiolabeled phosphate of AppDNA is denoted by •. The nicked DNA-adenylate substrate used in the ligation reactions is illustrated at the bottom.
(§3) The nicked DNA-adenylate substrate is illustrated in FIG. 13. The DNA-adenylate ligation reaction mixtures (20 μl) contained 50 mM Tris-HCl (pH 7.5), 5 mM DTT, 5 mM MgCl2, 200 fmol of nicked DNA-adenylate substrate, 2 pmol of wild-type or mutant EcoLigA proteins as specified were incubated at 22° C. The sealing reactions were initiated by adding ligase. Aliquots (20 μl) were withdrawn at the times specified and quenched immediately with EDTA and formamide. The products were resolved by denaturing PAGE and the extents of ligation were determined by scanning the gel with a phosphorimager. The extent of strand joining is plotted as a function of reaction time.
(§4) The third step of the ligation pathway entails attack of the 3′ OH of the nick on the 5′ PO4 of the DNA-adenylate to form a phosphodiester and release AMP. Step 3 of the ligation reaction was assayed using a pre-adenylated nicked DNA substrate labeled with ^32P on the 5′ PO4 of the DNA-adenylate strand (FIG. 13).

[4] = tested on: E. coli LigA; settings: reference 19; cited from earlier work
[5] = molecular target: E. coli LigA (Escherichia coli, UniProt P15042); type: biochemical
Procedure: as §2, §3, §4

B1: H23A: E. coli LigA with His23 replaced by alanine (protein, UniProt P15042 1-671, looked up, variant H23A)
DNA ligase: MESIEQQLTELRTTLRHHEYLYAVMDAPEIPDAEYDRLMRELRELETKHPELITPDSPTQRVGAAPLAAFSQIRHEVPMLSLDNVFDEESFLAFNKRVQDRLKNNEKVTWCCELKLDGLAVSILYENGVLVSAATRGDGTTGEDITSNVRTIRAIPLKLHGENIPARLEVRGEVFLPQAGFEKINEDARRTGGKVFANPRNAAAGSLRQLDPRITAKRPLTFFCYGVGVLEGGELPDTHLGRLLQFKKWGLPVSDRVTLCESAEEVLAFYHKVEEDRPTLGFDIDGVVIKVNSLAQQEQLGFVARAPRWAVAFKFPAQEQMTFVRDVEFQVGRTGAITPVARLEPVHVAGVLVSNATLHNADEIERLGLRIGDKVVIRRAGDVIPQVVNVVLSERPEDTREVVFPTHCPVCGSDVERVEGEAVARCTGGLICGAQRKESLKHFVSRRAMDVDGMGDKIIDQLVEKEYVHTPADLFKLTAGKLTGLERMGPKSAQNVVNALEKAKETTFARFLYALGIREVGEATAAGLAAYFGTLEALEAASIEELQKVPDVGIVVASHVHNFFAEESNRNVISELLAEGVHWPAPIVINAEEIDSPFAGKTVVLTGSLSQMSRDDAKARLVELGAKVAGSVSKKTDLVIAGEAAGSKLAKAQELGIEVIDEAEMLRLLGS
rate of ligase adenylation (kinetic pattern) ([1]; 1 μM [32P-AMP]NAD+, 15-120 s): reacted slowly | ligase adenylation (ligase-AMP formation) with NAD+ [1]: less active | Nick Joining Activity (% of WT) [2]: 10 % of WT | phosphodiester formation at pre-adenylated nick [3]: catalytically active

B2: NΔ78: N-terminal deletion of E. coli DNA ligase LigA eliminating domain Ia (protein, UniProt P15042 79-671, looked up, fragment)
chain: MLSLDNVFDEESFLAFNKRVQDRLKNNEKVTWCCELKLDGLAVSILYENGVLVSAATRGDGTTGEDITSNVRTIRAIPLKLHGENIPARLEVRGEVFLPQAGFEKINEDARRTGGKVFANPRNAAAGSLRQLDPRITAKRPLTFFCYGVGVLEGGELPDTHLGRLLQFKKWGLPVSDRVTLCESAEEVLAFYHKVEEDRPTLGFDIDGVVIKVNSLAQQEQLGFVARAPRWAVAFKFPAQEQMTFVRDVEFQVGRTGAITPVARLEPVHVAGVLVSNATLHNADEIERLGLRIGDKVVIRRAGDVIPQVVNVVLSERPEDTREVVFPTHCPVCGSDVERVEGEAVARCTGGLICGAQRKESLKHFVSRRAMDVDGMGDKIIDQLVEKEYVHTPADLFKLTAGKLTGLERMGPKSAQNVVNALEKAKETTFARFLYALGIREVGEATAAGLAAYFGTLEALEAASIEELQKVPDVGIVVASHVHNFFAEESNRNVISELLAEGVHWPAPIVINAEEIDSPFAGKTVVLTGSLSQMSRDDAKARLVELGAKVAGSVSKKTDLVIAGEAAGSKLAKAQELGIEVIDEAEMLRLLGS
nick joining activity (prior studies) [4]: complete loss | ligase adenylation (ligase-AMP formation) with NAD+ [1]: inert | effect on the rate of approach to the endpoint of step 3 reaction [5]: 2 fold | phosphodiester formation at pre-adenylated nick [3]: capable of forming a phosphodiester bond

B3: NΔ38: N-terminal deletion of E. coli DNA ligase LigA eliminating part of domain Ia (protein, UniProt P15042 39-671, looked up, fragment)
chain: MRELRELETKHPELITPDSPTQRVGAAPLAAFSQIRHEVPMLSLDNVFDEESFLAFNKRVQDRLKNNEKVTWCCELKLDGLAVSILYENGVLVSAATRGDGTTGEDITSNVRTIRAIPLKLHGENIPARLEVRGEVFLPQAGFEKINEDARRTGGKVFANPRNAAAGSLRQLDPRITAKRPLTFFCYGVGVLEGGELPDTHLGRLLQFKKWGLPVSDRVTLCESAEEVLAFYHKVEEDRPTLGFDIDGVVIKVNSLAQQEQLGFVARAPRWAVAFKFPAQEQMTFVRDVEFQVGRTGAITPVARLEPVHVAGVLVSNATLHNADEIERLGLRIGDKVVIRRAGDVIPQVVNVVLSERPEDTREVVFPTHCPVCGSDVERVEGEAVARCTGGLICGAQRKESLKHFVSRRAMDVDGMGDKIIDQLVEKEYVHTPADLFKLTAGKLTGLERMGPKSAQNVVNALEKAKETTFARFLYALGIREVGEATAAGLAAYFGTLEALEAASIEELQKVPDVGIVVASHVHNFFAEESNRNVISELLAEGVHWPAPIVINAEEIDSPFAGKTVVLTGSLSQMSRDDAKARLVELGAKVAGSVSKKTDLVIAGEAAGSKLAKAQELGIEVIDEAEMLRLLGS
nick joining activity (prior studies) [4]: complete loss | ligase adenylation (ligase-AMP formation) with NAD+ [1]: inert | effect on rate or extent (yield) of phosphodiester formation at a pre-adenylated nick [3]: no effect | phosphodiester formation at pre-adenylated nick [3]: capable of forming a phosphodiester bond

B4: E10A: E. coli LigA with Glu10 replaced by alanine in domain Ia (protein, UniProt P15042 1-671, looked up, variant E10A)
DNA ligase: B1 DNA ligase with E10A, A23H
ligase adenylation (ligase-AMP formation) with NAD+ [1]: did not affect | Nick Joining Activity (% of WT) [2]: 90 % of WT | phosphodiester formation at pre-adenylated nick [3]: catalytically active

B5: Y22A: E. coli LigA with Tyr22 replaced by alanine (protein, UniProt P15042 1-671, looked up, variant Y22A)
DNA ligase: B1 DNA ligase with Y22A, A23H
ligase adenylation (ligase-AMP formation) with NAD+ [1]: virtually inert | nick ligation (qualitative) [2]: virtually inert | Nick Joining Activity (% of WT) [2]: 0.1 % of WT | effect on rate or extent (yield) of phosphodiester formation at a pre-adenylated nick [3]: no effect | phosphodiester formation at pre-adenylated nick [3]: catalytically active

B6: D32A: E. coli LigA with Asp32 replaced by alanine (protein, UniProt P15042 1-671, looked up, variant D32A)
DNA ligase: B1 DNA ligase with A23H, D32A
ligase adenylation (ligase-AMP formation) with NAD+ [1]: virtually inert | nick ligation (qualitative) [2]: virtually inert | Nick Joining Activity (% of WT) [2]: 0.2 % of WT | phosphodiester formation at pre-adenylated nick [3]: catalytically active

B7: Y35A: E. coli LigA with Tyr35 replaced by alanine (protein, UniProt P15042 1-671, looked up, variant Y35A)
DNA ligase: B1 DNA ligase with A23H, Y35A
ligase adenylation (ligase-AMP formation) with NAD+ [1]: less active | Nick Joining Activity (% of WT) [2]: 2 % of WT | phosphodiester formation at pre-adenylated nick [3]: catalytically active

B8: D36A: E. coli LigA with Asp36 replaced by alanine (protein, UniProt P15042 1-671, looked up, variant D36A)
DNA ligase: B1 DNA ligase with A23H, D36A
ligase adenylation (ligase-AMP formation) with NAD+ [1]: virtually inert | nick ligation (qualitative) [2]: virtually inert | Nick Joining Activity (% of WT) [2]: 0.2 % of WT | effect on rate or extent (yield) of phosphodiester formation at a pre-adenylated nick [3]: no effect | phosphodiester formation at pre-adenylated nick [3]: catalytically active
